Experimental data reported in article PMC6430086.

Tests used:
[1] = target: HIV-1 envelope glycoprotein gp41 (HIV-1) (UniProt P04578)
[2] = target: HIV-1 envelope glycoprotein gp120 (HIV-1) (UniProt P04578)

| Substance | EC50 to inhibit giant cell (syncytium) formation in SupT1 + HUT-78/HIV-1 co-cultures (fusion by gp120/gp41-CD4 interaction) [1] [nM] | EC50 to inhibit giant cell (syncytium) formation in SupT1 + HUT-78/HIV-1 co-cultures (fusion by gp120/gp41-CD4 interaction) [2] [nM] |
| --- | --- | --- |
| Canavalia brasiliensis lectin (from UniProt P55915 1-237) (natural protein) | 75 | 75 |
| Canavalia maritima lectin (natural protein) | 75 | 75 |
| Dioclea lasiocarpa lectin (natural protein) | 46 | 46 |
| Dioclea sclerocarpa lectin (natural protein) | 63 | 63 |
